We go through 9 molecules from patent publication US20160340403A1 (published 2016).

Test [1] addresses PE-conjugated HLA-A*02:01/MART1 26-35 heteroclitic multimer (Proimmune) (human). Kind of test: structural avidity: flow cytometry, graded A2/MART1 multimer on Jurkat76 transfectants without CD8. For orientation: Flow cytometry measures light scatter and fluorescence of single cells or particles in a stream.
Test [2] addresses HLA-A*02:01 presenting MART1 27-35 peptide (…) on peptide-pulsed T2 cells (human). The test can be described thus: cell-based or functional assay.
The target in test [3] is PE-conjugated HLA-A*02:01/MART1 26-35 heteroclitic multimer (Proimmune) (human). Kind of test: structural avidity: flow cytometry, graded A2/MART1 multimer on Jurkat76/CD8αβ transfectants.
For test [4], the target named is MART1 peptide on HLA-A*02:01 (human). Kind of test: IL-2 ELISPOT; Jurkat76/CD8αβ transfectants; T2 cells pulsed with graded concentrations of MART1 27-35 peptide; full-length, on cells.
The target is the same in test [5]. Kind of test: IL-2 ELISPOT; Jurkat76 transfectants without CD8; T2 cells pulsed with graded concentrations of MART1 27-35 peptide; full-length, on cells.
For test [6] the target is unchanged. The test can be described thus: staining with graded concentrations of A2/MART1 multimer; Jurkat76 transfectants without CD8; full-length, on cells.
Test [7] has the same target. The test can be described thus: staining with graded concentrations of A2/MART1 multimer; Jurkat76/CD8αβ transfectants; full-length, on cells.
Test [8] has as its target T1, WT1 peptide on HLA-A*24:02 (human, heteroclitic peptide as printed; the natural WT1 235-243 residues are not given).
T1 peptide: CYTWNQMNL
The test can be described thus: cytokine release.

Test [9] deals with MART1 peptide on HLA-A*02:01 (human). The test can be described thus: staining with graded concentrations of A2/MART1 multimer; Jurkat76 transfectants without CD8; full-length, on cells. Conditions: heteroclitic peptide, residues not given.
The target is the same in test [10]. The test can be described thus: staining with graded concentrations of A2/MART1 multimer; Jurkat76/CD8αβ transfectants; full-length, on cells. To be noted: heteroclitic peptide, residues not given.
Setting [11] is: chains Valpha:beta TRBV27 TRBJ1-2 CDR3.
[12] abbreviates: chains Valpha:beta TRBV27 TRBJ2-7 CDR3.

Usually EC50 stands for the concentration that produces a half-maximal response. On to A2/MART1-specific TCR, clone DMF5, for which the EC50 in test [1] was 0.03 µg/mL. In test [2], the Functional avidity w/CD8 EC50 (IL-2 ELISPOT, peptide-pulsed T2 cells) was 330 nM; the Functional avidity w/o CD8 EC50 (IL-2 ELISPOT, peptide-pulsed T2 cells) came out at 1400 nM; the Functional avidity with CD8 EC50 (IL-2 ELISPOT, peptide-pulsed T2 cells) is 0.102 µg/mL; the Functional avidity without CD8 EC50 (IL-2 ELISPOT, peptide-pulsed T2 cells) is 0.363 µg/mL. This molecule had an EC50 in [3] of 0.02 µg/mL.
On to DMF5 TCR, for which the EC50 of peptide in [4] was 330 nM; in test [5], 1400 nM. Moreover, the EC50 of multimer (structural avidity) in [6] turned out to be 0.03 µg/mL; in [7], 0.02 µg/mL.

B1: Clone T53 (T53 TCRα with TAK1β) (TCR, V domains shown)
Valpha: EDKVVQSPLSLVVHEGDTVTLNCSYEVTNFRSLLWYKQEKKAPTFLFMLTSSGIEKKSGRLSSILDKKELFSILNITATQTGDSAVYLCAVITGGTSYGKLTFGQGTILTVHP
Vbeta: LAGVTQTPRYLIKTRGQQVTLSCSPISGHRSVSWYQQTPGQGLQFLFEYFSETQRNKGNFPGRFSGRQFSNSRSEMNVSTLELGDSALYLCASSLGWRETYNEQFFGPGTRLTVL
Consider B1, for which the binding result in [8] is “recognises”.

B2: Clone A262 (A262 TCRα with TAK1β) (TCR, V domains shown)
Valpha: EDKVVQSPLSLVVHEGDTVTLNCSYEVTNFRSLLWYKQEKKAPTFLFMLTSSGIEKKSGRLSSILDKKELFSILNITATQTGDSATYLCAVQNAGGTSYGKLTFGQGTILTVHP
Vbeta: B1 Vbeta
In the case of B2, the binding result in test [8] is “recognises”.

B3: Clone T262 (T262 TCRα with TAK1β) (TCR, V domains shown)
Valpha: EDQVTQSPEALRLQEGESSSLNCSYTVSGLRGLFWYRQDPGKGPEFLFTLYSAGEEKEKERLKATLTKKESFLHITAPKPEDSATYLCAVQALRNNAGNNRKLIWGLGTSLAVNP
Vbeta: B1 Vbeta
Take B3: the binding result in test [8] is listed as “recognises”.

B4: Clone T243 (T243 TCRα with TAK1β) (TCR, V domains shown)
Valpha: EDKVVQSPLSLVVHEGDTVTLNCSYEVTNFRSLLWYKQEKKAPTFLFMLTSSGIEKKSGRLSSILDKKELFSILNITATQTGDSAVYLCAVLTQTGANNLFFGTGTRLTVIP
Vbeta: B1 Vbeta
Consider B4, for which, in [8], the binding result was “recognises”.

B5: Clone 1086 (SIG35α with clone 1086 TCRβ) (protein)
chain 1: QKEVEQNSGPLSVPEGAIASLNCTYSDRGSQSFFWYRQYSGKSPELIMFIYSNGDKEDGRFTAQLNKASQYVSLLIRDSQPSDSATYLCAVSIGFGNVLHCGSGTQVIVLP
chain 2: CASSLHGPGGYTF
For the molecule B5, the EC50 of multimer (structural avidity) in [9] (setting [11]) stood at 0.04 µg/mL; in [10] (setting [11]), 0.01 µg/mL.

B6: Clone 788 (SIG35α with clone 788 TCRβ) (protein)
chain 1: B5 chain 1
chain 2: CASGPSYEQYF
As for B6, the EC50 of multimer (structural avidity) turned out to be 0.05 µg/mL in test [9] (setting [12]) and 0.01 µg/mL in [10] (setting [12]).

B7: Clone 523 (SIG35α with clone 523 TCRβ) (protein)
chain 1: B5 chain 1
chain 2: CASGSYEQYF
Molecule B7 returned an EC50 of multimer (structural avidity) in test [10] (setting [12]) of 0.3 µg/mL.
